{"source": "patent US20230093399A1", "about": "“METHODS FOR GENERATING PLURIPOTENT STEM CELL-DERIVED BROWN FAT CELLS” (AgeX Therapeutics, Inc., priority 2013, published 2023)", "molecules": {"B1": {"name": "BMP4: Bone Morphogenetic Protein 4, TGF-beta superfamily member (protein, UniProt P12644 293-408, looked up)", "Bone morphogenetic protein 4": "SPKHHSQRARKKNKNCRRHSLYVDFSDVGWNDWIVAPPGYQAFYCHGDCPFPLADHLNSTNHAIVQTLVNSVNSSIPKACCVPTELSAISMLYLDEYDKVVLKNYQEMVVEGCGCR"}}, "system": "cell line E75", "test": "Differentiation of cell line E75 in HyStem, gene expression", "format": "cell-based, human", "description": "HyStem-C (BioTime, Inc. Alameda, Calif.) (BioTime, Alameda, Calif., USA) was reconstituted following the manufacturer's instructions. Briefly, the HyStem component (thiol modified hyaluronan, 10 mg) was dissolved in 1.0 ml degassed deionized water for about 20 minutes to prepare a 1% w/v solution. The Gelin-S component (thiol modified gelatin, 10 mg) was dissolved in 1 ml degassed deionized water to prepare a 1% w/v solution, and PEGDA (PEG diacrylate, 10 mg) was dissolved in 0.5 ml degassed deionized water to prepare a 2% w/v solution. HyStem (1 ml, 1% w/v) was mixed with Gelin-S (1 ml, 1% w/v) immediately before use. Pelleted cells were resuspended in recently prepared HyStem:Gelin-S (1:1 v/v) mix described above. Upon the addition of crosslinker PEGDA, the cell suspension, at a final concentration of 2.0×10^7 cells/ml, was aliquoted at 25 μl aliquot four to five times into each well of 6 well plates (Corning 3516) after partial gelation to form attached beads. Following complete gelation (20 minutes), chondrogenic medium was added to each well (i.e about 4 ml/each well of a 6 well plate). […]\nThe Gelin-S® component (10 mg of thiol-modified gelatin (BioTime)) is dissolved in 1.0 ml of degassed deionized water to prepare a 1% w/v solution, and polyethylene glycol diacrylate (10 mg of PEGDA) is dissolved in 0.5 ml of degassed deionized water to prepare a 2% w/v solution. […] At the desired time point, hydrogel constructs were either fixed and processed for immunohistochemical analysis or lysed using RLT (Qiagen, CA, USA) with 1% beta-mercaptoethanol for total RNA to analyze transcript expression using quantitative real-time PCR (qRT-PCR) and/or whole-genome microarray.\nTotal RNA was extracted directly from cells growing in 6-well plates or 10 cm tissue culture dishes using Qiagen RNeasy mini kits according to the manufacturer's instructions. RNA concentrations were measured using a Beckman DU530 or Nanodrop spectrophotometer and RNA quality was determined by denaturing agarose gel electrophoresis or using an Agilent 2100 bioanalyzer. […] The cRNA was hybridized to Illumina BeadChips, processed, and read using a BeadStation array reader according to the manufacturer's instructions (Illumina, San Diego, Calif., USA).", "data": [{"molecule": "B1", "values": [{"measurement": "ameloblastin (AMBN) expression", "setting": "E75, 21 days HyStem, BMP4 and TGFβ3", "result": "expressed the additional marker normally associated with enamel called ameloblastin"}, {"measurement": "markers normally associated with enamel, enamelin (ENAM) and amelogenin (AMELX)", "setting": "E75, HyStem in the presence of BMP4 and TGFβ3", "result": "expressed the markers normally associated with enamel"}, {"measurement": "adipocyte markers FABP4 and CD36 and candidate BAT cell progenitor markers such as C19orf80", "setting": "E75 passage 11, 21 days in HyStem with 10 ng/mL BMP4", "result": "relatively high levels"}, {"measurement": "markers of endochondral ossification including COL2A1, ALPL, IBSP, and osteopontin (SPP1)", "setting": "E75 passage 11, 21 days in HyStem with 10 ng/mL TGFβ3 together with BMP4 (10 ng/mL) or BMP2 (50 ng/mL)", "result": "relatively high levels"}]}]}
